Blank lines part the entries; values can stand above or below the compound they belong to. No end group written: not given here. d = 2'-deoxy (DNA); r = 2'-OH (RNA)
What was measured:
HeLa cells = test: Live cell imaging by fluorescence microscopy; assay type: cell-based, human; details: compared with 5L AuNPs
Method: Fluorescence images of live cells were acquired using a fluorescence microscopy system (Olympus, Tokyo, Japan). Briefly, HeLa and MDA-MB231 cells were collected by trypsinization, counted, and plated in a 96-well black clear-bottom culture plate (Corning Life Sciences, Pittston, Pa.) at a density of 1×10^3 cells per well. After 1 day, AuNPs (2.52×10^8 particles) were added and incubated for 12 hours. Cells were then washed three times with PBS and cultured in phenol red-free medium and imaged with a fluorescence microscopy at the time points indicated. In a separate set of experiment, cells were treated with CellTrackers, CM-DiI (2 μM), or CMTMR (7.5 μM, Invitrogen). One day after cell seeding, HeLa and MDA-MB231 cells were incubated with CM-DiI for 5 minutes at 37° C. and then further incubated at 4° C. for an additional 15 minutes according to manufacturer's protocol. After removing the medium, the cells were then incubated for an additional 15 minutes at 4° C. For CMTMR study, cells were incubated with CMTMR for 30 minutes at 37° C. and the medium was then replaced with fresh medium and incubated for a further 30 minutes. After labeling with CM-DiI or CMTMR, cells were washed three times with PBS and cultured in phenol red-free medium and imaged under a fluorescence microscopy as indicated.

Jurkat cells = test: Fluorescence retention, flow cytometry; assay type: cell-based; details: day 4
Method: Jurkat cells (1.0×10^6 cells) were seeded in a 12-well culture plate (BD Falcon, San Jose, Calif.) together with 5L AuNPs (1.26×10^9 particles) in 400 μl RPMI 1640 medium and cultured for 24 hours in the dark at 37° C. in a 5% CO2 atmosphere. Cells (4×10^5) were then transferred to a FACS tube after three washes with PBS, and the FITC fluorescence signal inside the cells was measured using a BD LSR II flow cytometry (BD Biosciences, San Jose, Calif.). Remaining cells were cultured in 6-well culture plates (BD Falcon) in 4 ml RPMI 1640 medium. The procedure was repeated at different time points, up to 21 days. In a separate set of experiments, Jurkat cells (1.0×10^6) were incubated with CM-DiI (1 μM) or CMTMR (2 μM) following the manufacturer's instructions. On the designated day, the fluorescence signal of CM-DiI or CMTMR was measured using a PE filter set by a BD LSR II flow cytometry.

Cath E [1] = target: T1, Cath E (Mus musculus, UniProt P70269); test: Ex vivo NIRF imaging of GEMM PDAC tumors; assay type: in vivo
T1 construct: from tissue; host or cells: pancreas, PDAC tumours and PanIN lesions of GEMMs (cLGL-KRasG12V/Bac-Ela-CreER; p53 conditional deletion/LSL-KrasG12D/Pdx1-Cre)
T1 sequence (P70269 60-397): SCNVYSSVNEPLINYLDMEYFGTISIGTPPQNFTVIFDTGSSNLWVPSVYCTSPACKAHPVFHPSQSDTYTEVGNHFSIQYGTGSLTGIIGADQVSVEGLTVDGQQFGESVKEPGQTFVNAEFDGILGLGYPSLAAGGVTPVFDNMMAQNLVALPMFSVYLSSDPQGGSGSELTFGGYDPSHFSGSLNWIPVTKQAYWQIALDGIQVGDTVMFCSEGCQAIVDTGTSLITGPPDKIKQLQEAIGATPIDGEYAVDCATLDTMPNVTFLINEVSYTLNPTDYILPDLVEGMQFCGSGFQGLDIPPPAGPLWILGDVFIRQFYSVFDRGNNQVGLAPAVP
Method: To assess whether Cath E activity served as a biomarker for in vivo imaging, studies were performed in human pancreatic cancer xenografts in immunodeficient mice (acquired from the National Cancer Institute with age of the mice ranging from 5-6 weeks old) and transgenic mice. Animals were housed at the MD Anderson Cancer Center animal facility. Mice used for optical imaging studies were fed with a chlorophyll-free diet. Genetic PanINs and PDAC mouse models were developed by crossing cLGL-KRas^G12V with Bac-Ela-CreER mice as described previously (Ji et al., Gastroenterology 137:1072-82 (2009)). These animals developed PanINs at 2 months and PDAC by ˜6 months. […] PDAC in these mice developed in 6-8 weeks after birth (Bardeesy et al., Proc. Natl. Acad. Sci. USA 103:5947-52 (2006)). Littermates without PDAC served as controls. LSL-KRas^G12D, p53 floxed, and Pdx-1-Cre genetic mice were obtained from the Mouse Models for Human Cancer Consortium Repository (Rockville, Md.).
Subcutaneous models (human material PDAC tumor grafts with mice bearing 2 tumors each n=4, MDA PATC-3 orthotopic model n=3, MPanc96 expressing low levels of Cath E (MPanc96-FG30) n=10, and MPanc96 expression high levels of Cath E (Mpanc96-Cath E) n=10) and two transgenic models with litter controls (n=5 each) were used to assess the usefulness of the Cath E-activatable imaging probe. Animals were injected with a single dose of the optical imaging probe (1 nmol/100 μl PBS) or saline (controls) intravenously through tail vein using a 30 gauge syringe needle. The anesthetized mice were placed in the heated imaging platform of IVIS-100/Spectrum optical imaging systems (Xenogen/Caliper, Mountain View, Calif.). White light and near infrared fluorescence (NIRF) images were acquired sequentially using Cy5.5 fluorescence filters (615-665 nm excitation filter and 695-770 nm emission filter). Mice were imaged 48 hours post probe intravenous injection. Mice were sacrificed and organs/tissues were excised and rinsed with PBS then imaged for their associated NIRF. Fluorescence variations between different organs/tissues were corrected by subtracting the autofluorescence signals obtained from imaging organs/tissues of mice without any probe injected. General illumination setting and image acquisition parameters were: epi-illumination; 0.5 sec. exposure time; f/stop=2; binning (HR)4; field of view (FOV=12.9 cm or 6.5 cm width and height). The mean fluorescence flux from each image was defined as photons per second per centimeter squared per steradian (p/s/cm^2/sr). Acquired images were analyzed using Living Image 3.1 software (Xenogen/Caliper, Alameda, Calif.). Fluorescence contrast, defined as radiance, was quantified using identical size regions of interest (ROI).

Cath E [2] = target: T1, Cath E; test: Ex vivo NIRF imaging of GEMM pancreas with PanIN lesions; assay type: in vivo; details: 48 hours after probe injection, 2 months old mice
Method: To assess whether Cath E activity served as a biomarker for in vivo imaging, studies were performed in human pancreatic cancer xenografts in immunodeficient mice (acquired from the National Cancer Institute with age of the mice ranging from 5-6 weeks old) and transgenic mice. Animals were housed at the MD Anderson Cancer Center animal facility. Mice used for optical imaging studies were fed with a chlorophyll-free diet. Genetic PanINs and PDAC mouse models were developed by crossing cLGL-KRas^G12V with Bac-Ela-CreER mice as described previously (Ji et al., Gastroenterology 137:1072-82 (2009)). These animals developed PanINs at 2 months and PDAC by ˜6 months. […]
(§1) Subcutaneous models (human material PDAC tumor grafts with mice bearing 2 tumors each n=4, MDA PATC-3 orthotopic model n=3, MPanc96 expressing low levels of Cath E (MPanc96-FG30) n=10, and MPanc96 expression high levels of Cath E (Mpanc96-Cath E) n=10) and two transgenic models with litter controls (n=5 each) were used to assess the usefulness of the Cath E-activatable imaging probe. […] White light and near infrared fluorescence (NIRF) images were acquired sequentially using Cy5.5 fluorescence filters (615-665 nm excitation filter and 695-770 nm emission filter). […] The mean fluorescence flux from each image was defined as photons per second per centimeter squared per steradian (p/s/cm^2/sr). […]

Cath E [3] = target: T2, Cath E (Homo sapiens, UniProt P14091); test: In vivo NIRF imaging of primary patient tumor grafts in mice; design: endogenous in cells; host or cells: primary patient PDAC tumour grafts (subcutaneous) and MDA PATC-3 orthotopic tumours in immunodeficient mice; details: 48 hours after iv probe, immunodeficient mice
T2 sequence (P14091 54-396): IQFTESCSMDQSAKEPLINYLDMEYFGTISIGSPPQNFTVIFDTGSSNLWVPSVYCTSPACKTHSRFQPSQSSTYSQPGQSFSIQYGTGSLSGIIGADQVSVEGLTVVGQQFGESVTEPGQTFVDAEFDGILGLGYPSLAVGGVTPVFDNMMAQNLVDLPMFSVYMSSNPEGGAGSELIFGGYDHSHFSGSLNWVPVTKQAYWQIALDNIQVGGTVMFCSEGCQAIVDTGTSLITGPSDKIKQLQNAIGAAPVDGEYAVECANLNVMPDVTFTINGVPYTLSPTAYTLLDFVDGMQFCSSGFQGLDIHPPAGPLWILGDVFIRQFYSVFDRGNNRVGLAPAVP
Method: Human cancer specimens used for transplantation as primary tumor grafts were obtained from patients with pancreatic invasive ductal adenocarcinoma who had undergone initial surgical resection at UT MD Anderson Cancer Center (Kim et al., Nat. Protoc. 4:1670-80 (2009)). Nude mice were anesthetized with a single intraperitoneal injection of ketamine (100 mg/kg) and xylazine (10 mg/kg). After washing with sterile PBS, tumor fragments were placed in the subcutaneous space of immunodeficient mice (Kim et al., Nat. Protoc. 4:1670-80 (2009)). When the tumor was visible, it was dissected out and transplanted into male nude mice and allowed to grow for 30 days. […]
as §1

Cath E [4] = target: T2, Cath E; test: Ex vivo NIRF imaging of MDA PATC-3 orthotopic tumors in mice; design: endogenous in cells; host or cells: primary patient PDAC tumour grafts (subcutaneous) and MDA PATC-3 orthotopic tumours in immunodeficient mice; details: organs excised, 48 hours after iv probe
Method: To establish orthotopic tumors, mice were anesthetized as described above, and the pancreas was exposed through a left abdominal incision (laparotomy). Subconfluent MDA PATC-3 cells were detached with 0.25% trypsin-EDTA and cell viability was assessed by trypan blue exclusion. Cells (1×10^6) were resuspended in 50 uL of Hanks Balanced Salt Solution (HBSS) and directly injected into the pancreas (caudal). After tumor implantation, the pancreas was carefully returned to the peritoneal cavity and the abdomen was closed. Two months after tumor implantation, fluorescent probe was injected via tail vein and imaged 48 hours after injection.
as §1, with “Fluorescence variations between different organs/tissues were corrected by subtracting the autofluorescence signals obtained” for “The mean fluorescence flux”, “imaging organs/tissues of mice without any probe injected.” for “each image was defined as photons per second per centimeter squared per steradian (p/s/cm^2/sr).”

[5] = system: firefly luciferase in MDA-MB231-luc2 cells; test: Luciferase gene silencing, bioluminescence; assay type: cell-based, human; details: 5 days, same conditions
Method: For the examination of the gene silencing effect, bioluminescence measurement was performed after incubating with various multilayered AuNPs. Cells were seeded in a 96-well black clear bottom culture plate at a density of 2.5×10^3 (or 1.25×10^4 of LNCaP-luc2) cells per well. One day later, different sRAuNP (1.26×10^8 particles) were added to each well and cultured for an additional 24 hours. The cells were further cultured in phenol red free medium for another 5 days. Manufacturer's direction was followed for the transfection with Lipofectamine. Bioluminescence measurement was performed using IVIS 200 (Caliper) immediately after addition of 125 μg mL^−1 of D-Luciferin (Regis).

Compound: CCCCCCCCCCCCCCCCCCN1C(=CC=CC2=[N+](CCCCCCCCCCCCCCCCCC)c3ccccc3C2(C)C)C(C)(C)c2cc(CNC(=O)c3ccc(CCl)cc3)ccc21.[Cl-] [CM-DiI]
signal strength (HeLa cells): much weaker than that of the 5L AuNPs
fluorescence intensity, % of the original intensity (Jurkat cells): 8%

increase in fluorescence in pancreas tumors compared to normal pancreas (Cath E [1]; 48 hours after 1 nmol probe iv, pooled GEMMs): ~15 fold
tumor to non-tumor signal ratio, tumor/bone (Cath E [1]; 48 hours after probe): 2.6
tumor to non-tumor signal ratio, tumor/kidney (Cath E [1]; 48 hours after probe): 1.9
tumor to non-tumor signal ratio, tumor/lung (Cath E [1]; 48 hours after probe): 2.9
tumor to non-tumor signal ratio, tumor/muscle (Cath E [1]; 48 hours after probe): 5.5
tumor to non-tumor signal ratio, tumor/normal pancreas (Cath E [1]; 48 hours after probe): 2.2
tumor to non-tumor signal ratio, tumor/small intestine (Cath E [1]; 48 hours after probe): 1.7
tumor to non-tumor signal ratio, tumor/spleen (Cath E [1]; 48 hours after probe): 3.9
increase in fluorescence in pancreas with PanIN lesions compared to normal pancreas (Cath E [2]): ~3 fold
Compound: Cath E-activatable imaging probe: Cy5.5-labeled Ala-Gly-Phe-Ser-Leu-Pro-Ala-Gly-CysCONH2 (SEQ ID NO:29) loaded on D-polyethylene glycol protected grafted copolymer (DPGC) (AGFSLPAGC-NH2; also: Cy5.5 label, place not given here, loaded on D-polyethylene glycol protected grafted copolymer (DPGC))
fluorescence signal at subcutaneous patient tumor grafts (Cath E [3]): strong specific fluorescence signal localized to the implanted tumor grafts
fluorescence signal at orthotopic primary cell tumors (Cath E [4]): strong signal specifically localized to the tumors in the pancreas

Compound: Free unformulated siRNA: siRNA against luciferase, SEQ ID NO:17/18, unformulated (chain 1 CGUACGCGGAAUACUUCGATT; chain 2 UCGAAGUAUUCCGCGUACGTT; sugars from the 5' end r19 d2, backbone not given here)
silencing effect [5]: didn't show any appreciable effect

Source: patent publication US9265844B2, “Protease degradable polypeptides and uses thereof” (THE METHODIST HOSPITAL SYSTEM, priority 2010, dated 2016)
